Measurements taken from patent US20240285785A1, “TARGETING SORTILIN” (priority 2022, published 2024).
*1 amine or outer side, *2 acyl side, *3 side chain or, on linkers, in order; H or OH if unused. Bridges are numbered along the chain shown (N, C = ends). Side-chain parts run from the residue outwards. [ ]: non-standard residue; d: D form. VCPAB = valine-citrulline p-aminobenzylcarbamate linker, CC(C)[C@H](N[*:1])C(=O)N[C@@H](CCCNC(N)=O)C(=O)Nc1ccc(COC(=O)[*:2])cc1; tBuAla = CC(C)(C)C[C@H](N)C(=O)O; MMAE = monomethyl auristatin E; Tle = CC(C)(C)[C@H](N)C(=O)O; Nle = CCCC[C@H](N)C(=O)O; βAla = NCCC(=O)O; Sar = CNCC(=O)O

Columns and labels:
SORT1 = biological target: T1, SORT1 (Homo sapiens, UniProt Q99523); test: Direct binding in fluorescence polarization (FP), FAM-labeled peptides; conditions: binding to SORT1-Ag
T1 construct: Human SORT1 (78-755)-His (Acrobiosystems); His (C); purchased Acrobiosystems SON—H52H5
T1 sequence (Q99523 78-755): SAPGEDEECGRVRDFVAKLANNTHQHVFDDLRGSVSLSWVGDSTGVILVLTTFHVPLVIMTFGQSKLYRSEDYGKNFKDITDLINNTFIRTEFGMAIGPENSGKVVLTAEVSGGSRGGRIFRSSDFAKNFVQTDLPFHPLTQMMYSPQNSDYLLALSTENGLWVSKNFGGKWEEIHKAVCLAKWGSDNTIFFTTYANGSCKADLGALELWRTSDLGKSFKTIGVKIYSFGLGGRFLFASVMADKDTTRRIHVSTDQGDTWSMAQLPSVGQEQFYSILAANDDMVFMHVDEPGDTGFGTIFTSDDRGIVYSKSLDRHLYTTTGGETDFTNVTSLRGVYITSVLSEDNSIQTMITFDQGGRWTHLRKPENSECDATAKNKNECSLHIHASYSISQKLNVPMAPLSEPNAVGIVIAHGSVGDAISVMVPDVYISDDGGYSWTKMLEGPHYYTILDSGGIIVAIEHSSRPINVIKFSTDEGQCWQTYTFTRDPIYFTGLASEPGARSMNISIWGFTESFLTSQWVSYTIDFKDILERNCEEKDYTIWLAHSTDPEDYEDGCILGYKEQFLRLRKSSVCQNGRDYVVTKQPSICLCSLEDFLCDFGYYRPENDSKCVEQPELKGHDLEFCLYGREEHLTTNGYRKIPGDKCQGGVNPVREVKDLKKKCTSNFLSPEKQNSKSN
Experimental: Peptides were dissolved into stock solutions in water, then brought up to final concentrations in 1×PBS, pH 7.4 and tested in DLS and CD (methods above) to ensure the peptides were soluble. Peptide concentrations were determined by quantifying the dye using the nanodrop and dye specific extinction coefficient at a specific wavelength. For FAM labeled dyes, the extinction coefficient 83000 cm^−1 M^−1 was used.
FAM labeled peptides were diluted to 1 μM in FP buffer (1×PBS, pH 7.4, 0.1% Tween-20) and serially diluted two-fold for a 12-point series to determine concentration at which the fluorescence intensity was 10,000 RFU and the polarization of the peptide was consistent. A 10× working solution would thus be 10× the concentration of FAM labeled peptide that satisfied the above criteria. […]
A 10× working solution of FAM-labeled peptides was prepared in the FP buffer (1×PBS, pH 7.4, 0.1% Tween-20). […] The 384-well plate was then centrifuged 1 min, 4000 rpm and fluorescence and polarization of dye measured on a Biotek Synergy Neo2 plate reader using the following settings (Excitation 485/20, Emission 528/20, Top read, Gain: 75, Light source: Xenon Flash, Lamp Energy: Low, Standard Dynamic range, Read speed: Normal, Delay: 0 msec, Measurements/Data Point: 10, Read Height: 9 mm). […]

[1] = Dynamic light scattering (DLS) solubility/aggregation; type: physicochemical; conditions: working concentrations (250 nM, PBS, pH 7.4)
Experimental: Samples were spun down on a bench top centrifuge, 15 minutes, 15,000 rpm, room temperature, to pellet any aggregated peptide/dust before taking a measurement. Visual inspection of the tubes was used to identify if any large pellets were formed, which is indicative of large aggregates. […] The plate was then transferred and read on the DLS instrument (Wyatt Technology DynaPro Plate Reader III) at 25° C.

[2] = Murine plasma stability assay; type: in vitro ADME; conditions: mouse, 37° C., read-out: Murine plasma stability assay, T1/2
Experimental: Frozen plasma was thawed at 37° C. and centrifuged at 4000 rpm to remove any clots and transferred to 96-well reaction plates by WuXi AppTec. Test compounds were added to the reaction plate at a final concentration of 2 μM and either stopped immediately or incubated at 37° C. for 5 minutes, 10 minutes, 30 minutes, 60 minutes, or 120 minutes. At the end of incubation, stop solution consisting of 200 ng/mL tolbutamide and 200 ng/mL labetalol in ACN was added to precipitate protein and mixed thoroughly. Samples were then transferred to a bioanalysis plate and shaken for 10 minutes prior to HPLC-MS/MS analysis of percent remaining compound.

MDA-MB-231 tumor cells = test: MDA-MB-231 murine xenograft efficacy model; type: in vivo, BALB/c Nude mice
Experimental: Murine xenograft experiments were conducted at WuXi AppTec and/or Charles River Laboratories and the care and use of animals was conducted in accordance with the regulations of the Association for Assessment and Accreditation of Laboratory Animal Care (AAALAC). MDA-MB-231 tumor cells (ATCC, Manassas, VA, cat #HTB-26) were grown and maintained in L15 medium supplemented with 10% heat inactivated fetal bovine serum, 1% Antibiotic-Antimycotic, and L-glutamine (2 mM) at 37° C. in an atmosphere in 5% CO2, 95% air. BALB/c Nude, female, 6-8 weeks, weighing approximately 18-22 g were purchased from Vital River Laboratory Animal Technology Co., LTD. Mice were inoculated subcutaneously at the right flank with MDA-MB-231 tumor cells (e.g., triple negative breast cancer cells) (10×10^6) in 0.2 mL of PBS with Matrigel (1:1) for tumor development. Animals were randomized and treatment was started when the average tumor volume reached approximately 150-200 mm^3 for the efficacy study. Dosing volume was adjusted based on body weight and was administered at 10 ml/Kg. […] Free MMAE payload was also tested, and similarly dissolved in 25 mM Histidine 10% sucrose pH 7 and one or more of the following doses, 0.6, 0.06 mg/kg, were administered to the mice i.v. at a QW×4 schedule. Tumor sizes were measured twice weekly in two dimensions using a caliper, and the volume in mm^3 calculated using the formula: V=0.5 a×b^2, where a and b are the long and short diameters of the tumor, respectively. TGI was calculated for each group using the formula: TGI (%)=[1−(Ti−T0)/(Vi−V0)]×100; where Ti is the average tumor volume of a treatment group on a given day, T0 is the average tumor volume of the treatment group on the first day of treatment, Vi is the average tumor volume of the vehicle control group on the same day with Ti, and V0 is the average tumor volume of the vehicle group on the first day of treatment.

[3] = Murine hematotoxicity assay; type: in vivo, BALB/c mice; conditions: 3 mg/kg i.v. QW×4, compared to vehicle or MMAE treatment
Experimental: Murine hematotoxicity experiments were conducted at Charles River Laboratories and the care and use of animals was conducted in accordance with the regulations of the Association for Assessment and Accreditation of Laboratory Animal Care (AAALAC). Wild type BALB/c, female, 7-8 weeks, weighing approximately 18-22 g were randomized and dosed intravenously with control or test articles at a QW×4 schedule. Dosing volume was adjusted based on body weight and was administered at 10 mL/Kg. PDCs were dissolved in 25 mM Histidine 10% sucrose pH 7 and 3 mg/kg was administered. Free MMAE payload was also tested, and similarly dissolved in 25 mM Histidine 10% sucrose pH 7 and administered to the mice at a dose of […] by i.v. injection at a QW×4 schedule. 3 days following each dose, 150 μL of whole blood was collected via submandibular method and placed in K2 EDTA tubes stored on ice. Blood neutrophil counts were performed on the day of collection by IDEXX labs. Body weights were recorded twice a week until study endpoint.
As outlined in the material and methods of Example 1, wild type BALB/c, female, 7-8 weeks, weighing approximately 18-22 g were randomized and dosed intravenously with control or test articles at a QW×4 schedule. Dosing volume was adjusted based on body weight and was administered at 10 ml/Kg. […] Free MMAE payload was also tested, and similarly dissolved in 25 mM Histidine 10% sucrose pH 7 and administered to the mice at a dose of […] by i.v. injection at a QW×4 schedule. 3 days following each dose, 150 μL of whole blood was collected via submandibular method and placed in K2 EDTA tubes stored on ice. Blood neutrophil counts were performed on the day of collection by IDEXX labs. Body weights were recorded twice a week until study endpoint.

[4] = biological target: T2, Human SORT1 (78-755)-His (Acrobiosystems) (human, UniProt Q99523 78-755); test: SPR (Biacore 8K), SORT1 amine-coupled to CM5 chip, PDC as analyte, 1:1 kinetic model
T2 construct: range 78-755; Amine-coupled to a CM5 chip in the SPR assay; not shown: His tag
T2 sequence (looked up): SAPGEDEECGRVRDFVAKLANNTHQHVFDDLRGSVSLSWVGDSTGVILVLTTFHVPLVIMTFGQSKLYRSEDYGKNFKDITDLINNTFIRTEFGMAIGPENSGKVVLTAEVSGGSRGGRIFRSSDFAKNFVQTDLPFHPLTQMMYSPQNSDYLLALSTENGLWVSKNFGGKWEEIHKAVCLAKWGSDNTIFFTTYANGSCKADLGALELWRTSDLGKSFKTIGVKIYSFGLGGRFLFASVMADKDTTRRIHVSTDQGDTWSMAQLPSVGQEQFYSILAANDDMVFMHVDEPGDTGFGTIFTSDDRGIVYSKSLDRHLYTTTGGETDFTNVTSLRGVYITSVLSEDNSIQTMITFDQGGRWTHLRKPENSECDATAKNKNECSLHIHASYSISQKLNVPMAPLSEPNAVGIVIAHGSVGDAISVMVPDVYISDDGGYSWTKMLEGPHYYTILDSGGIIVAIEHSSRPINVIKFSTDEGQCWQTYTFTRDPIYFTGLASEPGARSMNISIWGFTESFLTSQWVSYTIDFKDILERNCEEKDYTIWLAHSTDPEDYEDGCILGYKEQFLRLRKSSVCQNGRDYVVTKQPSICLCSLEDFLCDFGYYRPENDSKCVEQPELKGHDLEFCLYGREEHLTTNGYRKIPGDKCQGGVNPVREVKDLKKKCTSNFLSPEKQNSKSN
Experimental: SPR analysis was performed on Series S CM5 chips (Cytiva) using a Biacore 8K instrument (Cytiva). Sensorgrams were double-referenced by subtracting the response on both a reference flow cell and a blank sample. Human SORT1 (78-755)-His (Acrobiosystems) was diluted to 60 μg/mL in 10 mM sodium acetate pH 4.5 buffer and immobilized onto Series S CM5 chips using amine coupling at a flow rate of 10 μL/min for 45 s. The final immobilization level of SORT1 was between 2200-2600 RU.
For the multi-cycle kinetics analysis runs, a running buffer of 1×PBS pH 7.4, 0.005% Tween-20 was used. Five start-up cycles and a blank cycle preceded each analysis run. The runs were performed by sequential injections of analyte (0-25 nM) with a 150 seconds (s) association and 300 s dissociation at a flow rate of 30 μL/min, followed by a regeneration with 2 M MgCl₂ for 200 s at a flow rate of 10 μL/min. The kinetic rate constants (kₐ and kd) and the equilibrium binding constant (Kd) were calculated using a 1:1 kinetic binding model on the Biacore Insight Evaluation Software (Cytiva).

Question: For `CC(C)C[C@H](NC(=O)[C@H](CCCNC(=N)N)NC(=O)[C@H](CC(C)C)NC(=O)[C@H](C)NC(=O)[C@H](CC(C)C)NC(=O)[C@H](CCCNC(=N)N)NC(=O)[C@H](CCC(N)=O)NC(=O)[C@H](CC(C)C)NC(=O)[C@H](C)NC(=O)[C@@H]1CCCN1C(=O)[C@H](Cc1c[nH]c2ccccc12)NC(=O)[C@@H]1CCCN1C(=O)[C@H](C)NC(=O)[C@H](CCCNC(=N)N)NC(=O)[C@@H]1CCCN1C(=O)[C@H](CC(=O)O)NC(=O)[C@@H](N)CC(=O)O)C(=O)O` [PRGN_RL], which “poorer affinity than the WT sequence (PRGN_WT)” value (SORT1) is on record?
Answer: ~7 ×

Question: And the “solubility (DLS)” value [1]?
Answer: good solubility

Question: For `CC[C@H](C)[C@@H]([C@@H](CC(=O)N1CCC[C@H]1[C@H](OC)[C@@H](C)C(=O)N[C@H](C)[C@@H](O)c1ccccc1)OC)N(C)C(=O)[C@@H](NC(=O)[C@H](C(C)C)N(C)C(=O)OCc1ccc(NC(=O)[C@H](CCCNC(N)=O)NC(=O)[C@@H](NC(=O)CCCC(=O)NCCC(=O)N(C)CC(=O)N(C)CC(=O)N(C)CC(=O)N(C)CC(=O)N[C@@H](C)C(=O)N2CCC[C@H]2C(=O)N[C@@H](CCCNC(=N)N)C(=O)N[C@@H](Cc2c[nH]c3ccccc23)C(=O)N[C@@H](CC(=O)O)C(=O)N[C@@H](C)C(=O)N2CCC[C@H]2C(=O)N[C@@H](CC(C)C)C(=O)N[C@@H](CCCNC(=N)N)C(=O)N[C@@H](CC(=O)O)C(=O)N2CCC[C@H]2C(=O)N[C@@H](C)C(=O)N[C@@H](CC(C)C)C(=O)N[C@@H](CCCNC(=N)N)C(=O)N[C@@H](CCC(N)=O)C(=O)N[C@H](C(=O)N[C@@H](CC2CCC2)C(=O)O)C(C)(C)C)C(C)C)cc1)C(C)C` [Arb-SAR-Q15-PDC], which half-life at 2 μM [2] is on record?
Answer: 49.7 min

Question: And the “tumor growth inhibited relative to vehicle” value (MDA-MB-231 tumor cells; 3 mg/kg i.v. QW×4, day 22 (Example 8))?
Answer: 98%

Question: And the body weight loss (MDA-MB-231 tumor cells; Example 8, PDC 3 mg/kg, free MMAE 0.6 mg/kg, i.v. QW×4)?
Answer: body weight loss tracked each other

Question: And the blood neutrophil counts [3]?
Answer: reduced neutrophil counts

Question: For Ac-RWCENK([Sar-Sar-Sar-Sar-βAla-VCPAB-MMAE])R[Nle]FTCRQ[Tle][tBuAla]-OH (disulfide 3-11, C-term COOH) [Arb_cyclic_G23-PDC], which Kd [4] is on record?
Answer: 0.89 nM
